Laboratory results reported in patent US20240400708A1.

Experiments:
[1] = target: Feline FcRn complex (FcRn-alpha subunit and beta-microglobulin) (feline); assay: SPR (Biacore), feline FcRn captured on SA chip, IgG flowed over, pH 6
[2] = target: Feline FcRn complex (FcRn-alpha subunit and beta-microglobulin) (feline); assay: SPR (Biacore), feline FcRn captured on SA chip, IgG flowed over, pH 7.4

Row | Binder | Kd [1] [nM] | Kd [2] [nM]
1 | feline IgG1a Fc mutant S428M, S434F (antibody, part only; not given: variable domains and light chain, not shown: another chain or arm of the molecule; small tags and cut ends) constant: ASTTAPSVFPLAPSCGTTSGATVALACLVLGYFPEPVTVSWNSGALTSGVHTFPAVLQASGLYSLSSMVTVPSSRWLSDTFTCNVAHPPSNTKVDKTVRKTDHPPGPKPCDCPKCPPPEMLGGPSIFIFPPKPKDTLSISRTPEVTCLVVDLGPDDSDVQITWFVDNTQVYTAKTSPREEQFNSTYRVVSVLPILHQDWLKGKEFKCKVNSKSLPSPIERTISKAKGQPHEPQVYVLPPAQEELSRNKVSVTCLIKSFHPPDIAVEWEITGQPEPENNYRTTPPQLDSDGTYFVYSKLSVDRSHWQRGNTYTCSVMHEALHFHHTQKSLTQSPGK | 1.21 | 38.2
2 | feline IgG1a Fc mutant Q311K, S428Y (antibody, part only; not given: Variable domains, not shown: another chain or arm of the molecule) constant: ASTTAPSVFPLAPSCGTTSGATVALACLVLGYFPEPVTVSWNSGALTSGVHTFPAVLQASGLYSLSSMVTVPSSRWLSDTFTCNVAHPPSNTKVDKTVRKTDHPPGPKPCDCPKCPPPEMLGGPSIFIFPPKPKDTLSISRTPEVTCLVVDLGPDDSDVQITWFVDNTQVYTAKTSPREEQFNSTYRVVSVLPILHKDWLKGKEFKCKVNSKSLPSPIERTISKAKGQPHEPQVYVLPPAQEELSRNKVSVTCLIKSFHPPDIAVEWEITGQPEPENNYRTTPPQLDSDGTYFVYSKLSVDRSHWQRGNTYTCSVYHEALHSHHTQKSLTQSPGK | 3.31 | 35.9
3 | feline IgG1a Fc mutant S428M, S434W (antibody, part only; not given: Variable domains, not shown: another chain or arm of the molecule; small tags and cut ends) constant: ASTTAPSVFPLAPSCGTTSGATVALACLVLGYFPEPVTVSWNSGALTSGVHTFPAVLQASGLYSLSSMVTVPSSRWLSDTFTCNVAHPPSNTKVDKTVRKTDHPPGPKPCDCPKCPPPEMLGGPSIFIFPPKPKDTLSISRTPEVTCLVVDLGPDDSDVQITWFVDNTQVYTAKTSPREEQFNSTYRVVSVLPILHQDWLKGKEFKCKVNSKSLPSPIERTISKAKGQPHEPQVYVLPPAQEELSRNKVSVTCLIKSFHPPDIAVEWEITGQPEPENNYRTTPPQLDSDGTYFVYSKLSVDRSHWQRGNTYTCSVMHEALHWHHTQKSLTQSPGK | 0.937 | 25.3

The remaining lines, values ahead:

Row | Kd [1] [nM] | Kd [2] [nM] | Binder
4 | 1.39 | 24.1 | feline IgG1a Fc mutant S428Y, S434W (antibody, part only; not given: variable domains and light chain, not shown: another chain or arm of the molecule; small tags and cut ends) constant: ASTTAPSVFPLAPSCGTTSGATVALACLVLGYFPEPVTVSWNSGALTSGVHTFPAVLQASGLYSLSSMVTVPSSRWLSDTFTCNVAHPPSNTKVDKTVRKTDHPPGPKPCDCPKCPPPEMLGGPSIFIFPPKPKDTLSISRTPEVTCLVVDLGPDDSDVQITWFVDNTQVYTAKTSPREEQFNSTYRVVSVLPILHQDWLKGKEFKCKVNSKSLPSPIERTISKAKGQPHEPQVYVLPPAQEELSRNKVSVTCLIKSFHPPDIAVEWEITGQPEPENNYRTTPPQLDSDGTYFVYSKLSVDRSHWQRGNTYTCSVYHEALHWHHTQKSLTQSPGK
5 | 1.57 | 39.7 | feline IgG1a Fc mutant S428Y, S434F (antibody, part only; not given: Variable domains, not shown: another chain or arm of the molecule; small tags and cut ends) constant: ASTTAPSVFPLAPSCGTTSGATVALACLVLGYFPEPVTVSWNSGALTSGVHTFPAVLQASGLYSLSSMVTVPSSRWLSDTFTCNVAHPPSNTKVDKTVRKTDHPPGPKPCDCPKCPPPEMLGGPSIFIFPPKPKDTLSISRTPEVTCLVVDLGPDDSDVQITWFVDNTQVYTAKTSPREEQFNSTYRVVSVLPILHQDWLKGKEFKCKVNSKSLPSPIERTISKAKGQPHEPQVYVLPPAQEELSRNKVSVTCLIKSFHPPDIAVEWEITGQPEPENNYRTTPPQLDSDGTYFVYSKLSVDRSHWQRGNTYTCSVYHEALHFHHTQKSLTQSPGK
6 | 1.12 | 24.1 | feline IgG1a Fc mutant S428Y, S434Y (antibody, part only; not given: variable domains and light chain, not shown: another chain or arm of the molecule; small tags and cut ends) constant: ASTTAPSVFPLAPSCGTTSGATVALACLVLGYFPEPVTVSWNSGALTSGVHTFPAVLQASGLYSLSSMVTVPSSRWLSDTFTCNVAHPPSNTKVDKTVRKTDHPPGPKPCDCPKCPPPEMLGGPSIFIFPPKPKDTLSISRTPEVTCLVVDLGPDDSDVQITWFVDNTQVYTAKTSPREEQFNSTYRVVSVLPILHQDWLKGKEFKCKVNSKSLPSPIERTISKAKGQPHEPQVYVLPPAQEELSRNKVSVTCLIKSFHPPDIAVEWEITGQPEPENNYRTTPPQLDSDGTYFVYSKLSVDRSHWQRGNTYTCSVYHEALHYHHTQKSLTQSPGK
